Assay results as given in paper PMC7687889.

Target: human EphA2 ligand-binding domain (LBD) (human) (UniProt P29317)
Assay: SPR

Chain of EBV gHgL (Epstein-Barr virus glycoprotein H / glycoprotein L complex) (P03231 18-679): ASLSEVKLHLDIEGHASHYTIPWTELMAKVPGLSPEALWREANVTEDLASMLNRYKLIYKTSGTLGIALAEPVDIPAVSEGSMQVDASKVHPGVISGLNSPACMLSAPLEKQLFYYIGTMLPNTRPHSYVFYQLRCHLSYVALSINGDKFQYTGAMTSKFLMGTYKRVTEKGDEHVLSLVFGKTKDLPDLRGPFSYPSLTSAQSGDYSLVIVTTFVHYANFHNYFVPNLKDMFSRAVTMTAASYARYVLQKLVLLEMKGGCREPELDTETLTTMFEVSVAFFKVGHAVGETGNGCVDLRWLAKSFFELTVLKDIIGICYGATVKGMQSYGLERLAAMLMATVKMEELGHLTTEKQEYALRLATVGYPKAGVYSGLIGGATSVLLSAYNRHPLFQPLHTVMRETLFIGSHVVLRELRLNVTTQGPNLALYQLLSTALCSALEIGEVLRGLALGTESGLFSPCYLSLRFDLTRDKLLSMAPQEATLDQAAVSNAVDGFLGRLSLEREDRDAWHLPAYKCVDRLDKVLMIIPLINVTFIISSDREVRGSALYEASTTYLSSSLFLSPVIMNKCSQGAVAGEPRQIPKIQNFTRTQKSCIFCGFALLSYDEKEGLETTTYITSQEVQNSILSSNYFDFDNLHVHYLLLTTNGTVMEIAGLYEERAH
Chain of EBV gHgL (Epstein-Barr virus glycoprotein H / glycoprotein L complex) (P03212 24-137): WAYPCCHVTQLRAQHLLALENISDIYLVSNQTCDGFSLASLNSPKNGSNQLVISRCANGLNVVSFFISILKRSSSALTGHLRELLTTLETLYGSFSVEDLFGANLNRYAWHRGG
Chain of KSHV gHgL (Kaposi sarcoma-associated herpesvirus glycoprotein H / glycoprotein L complex) (F5HAK9 22-698): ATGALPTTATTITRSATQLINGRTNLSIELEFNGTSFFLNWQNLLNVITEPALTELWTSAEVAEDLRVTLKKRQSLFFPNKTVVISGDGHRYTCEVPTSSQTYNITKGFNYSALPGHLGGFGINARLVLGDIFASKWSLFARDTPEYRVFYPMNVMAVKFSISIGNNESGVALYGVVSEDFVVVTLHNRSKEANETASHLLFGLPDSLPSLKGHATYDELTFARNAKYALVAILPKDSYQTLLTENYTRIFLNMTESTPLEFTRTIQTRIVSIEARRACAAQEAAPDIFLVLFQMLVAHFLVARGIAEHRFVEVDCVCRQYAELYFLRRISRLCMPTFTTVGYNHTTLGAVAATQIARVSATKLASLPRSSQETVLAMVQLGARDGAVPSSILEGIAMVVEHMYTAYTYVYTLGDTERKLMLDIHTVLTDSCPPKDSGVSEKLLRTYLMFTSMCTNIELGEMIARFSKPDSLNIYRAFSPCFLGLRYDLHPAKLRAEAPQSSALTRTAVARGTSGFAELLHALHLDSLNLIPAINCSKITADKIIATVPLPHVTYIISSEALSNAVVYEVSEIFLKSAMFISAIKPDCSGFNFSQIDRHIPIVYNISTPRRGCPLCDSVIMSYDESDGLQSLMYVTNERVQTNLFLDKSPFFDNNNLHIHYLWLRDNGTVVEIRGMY
Chain of KSHV gHgL (Kaposi sarcoma-associated herpesvirus glycoprotein H / glycoprotein L complex) (F5HDB7 21-167): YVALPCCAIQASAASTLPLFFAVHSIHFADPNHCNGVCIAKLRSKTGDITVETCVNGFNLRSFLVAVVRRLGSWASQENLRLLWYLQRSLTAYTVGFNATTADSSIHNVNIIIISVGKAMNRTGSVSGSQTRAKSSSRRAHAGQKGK

Row | Substance | Kd [µM]
1 | EBV gHgL (Epstein-Barr virus glycoprotein H / glycoprotein L complex) (from UniProt P03231;P03212) | 4.12
2 | KSHV gHgL (Kaposi sarcoma-associated herpesvirus glycoprotein H / glycoprotein L complex) (from UniProt F5HAK9;F5HDB7) | 0.0175
